Test results published in paper PMC12820099, “CTCF couples long-range loop extrusion and diffusion to mediate a diverse Igκ repertoire” (Nature Communications, 2025).

Target: T1, SMC3 (mouse (endogenous in v-Abl pro-B cells), UniProt Q9CW03 1-1217)
T1 construct: SMC3, mouse, endogenous; precipitated with an SMC3 antibody from the solubilised chromatin fraction; Bait of the IP; it sits in the cohesin complex, so partners may touch other cohesin subunits rather than SMC3 itself; also called cohesin (SMC3 immunoprecipitate); source: endogenous, chromatin fraction of G1 arrested v-Abl pro-B cells (WT and CTCF-Nm)
T1 sequence (Q9CW03 whole entry): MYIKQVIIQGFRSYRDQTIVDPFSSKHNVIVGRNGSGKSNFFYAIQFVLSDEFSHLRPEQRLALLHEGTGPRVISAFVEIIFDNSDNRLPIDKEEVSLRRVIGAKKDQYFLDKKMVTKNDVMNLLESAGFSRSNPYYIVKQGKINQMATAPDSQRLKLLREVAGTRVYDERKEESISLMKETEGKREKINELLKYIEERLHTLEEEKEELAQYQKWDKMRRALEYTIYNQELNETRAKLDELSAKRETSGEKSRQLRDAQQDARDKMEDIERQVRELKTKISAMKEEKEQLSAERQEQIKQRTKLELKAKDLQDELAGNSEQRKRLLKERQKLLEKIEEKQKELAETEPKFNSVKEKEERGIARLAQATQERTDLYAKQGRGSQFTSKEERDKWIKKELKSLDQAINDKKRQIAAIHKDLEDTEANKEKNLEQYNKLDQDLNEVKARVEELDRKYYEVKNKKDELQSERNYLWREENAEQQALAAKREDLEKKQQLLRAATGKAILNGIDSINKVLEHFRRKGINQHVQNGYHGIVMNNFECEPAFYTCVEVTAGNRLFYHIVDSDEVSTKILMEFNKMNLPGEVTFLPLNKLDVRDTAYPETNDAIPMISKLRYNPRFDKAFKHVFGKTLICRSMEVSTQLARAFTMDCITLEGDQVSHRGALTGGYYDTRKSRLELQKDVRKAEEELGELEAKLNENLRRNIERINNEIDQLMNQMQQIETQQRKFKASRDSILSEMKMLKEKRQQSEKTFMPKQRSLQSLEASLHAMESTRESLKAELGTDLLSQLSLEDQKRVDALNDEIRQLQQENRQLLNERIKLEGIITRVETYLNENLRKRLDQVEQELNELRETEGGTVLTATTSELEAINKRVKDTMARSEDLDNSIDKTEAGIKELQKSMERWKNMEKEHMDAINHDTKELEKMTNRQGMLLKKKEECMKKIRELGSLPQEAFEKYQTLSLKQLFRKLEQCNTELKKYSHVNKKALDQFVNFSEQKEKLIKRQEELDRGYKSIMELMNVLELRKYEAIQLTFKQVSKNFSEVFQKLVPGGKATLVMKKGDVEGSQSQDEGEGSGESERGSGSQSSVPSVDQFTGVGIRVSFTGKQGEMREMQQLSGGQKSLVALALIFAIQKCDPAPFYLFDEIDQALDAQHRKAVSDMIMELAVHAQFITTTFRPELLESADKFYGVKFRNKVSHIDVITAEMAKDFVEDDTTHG
Assay: affinity purification with mass spectrometry; SMC3 antibody IP (Protein A beads, overnight, 100 mM NaCl) from Benzonase-solubilised chromatin fraction of G1 arrested WT and CTCF-Nm v-Abl pro-B cells; label-free qMS, protein intensities normalised to chromatin-bound SMC3; IgG isotype control
Conditions: partners not purified

fold reduction of the interaction against WT CTCF | fold increase of the interaction in CTCF-Nm cells against WT cells | Binder
3 fold |  | CTCF(Y226A/F228A) (natural protein, mouse (endogenous in v-Abl pro-B cells), UniProt Q61164 1-736, looked up, CTCF, mouse, endogenous, with the Y226A/F228A mutation of the N-terminal YDF motif; also called CTCF-Nm; source: endogenous locus, homozygous CRISPR/Cas9 knock-in, chromatin fraction of G1 arrested CTCF-Nm v-Abl pro-B cells) MEGEAVEAIVEESETFIKGKERKTYQRRREGGQEEDACHLPQNQTDGGEVVQDVNSSVQMVMMEQLDPTLLQMKTEVMEGTVAPEAEAAVDDTQIITLQVVNMEEQPINIGELQLVQVPVPVTVPVATTSVEELQGAYENEVSKEGLAESEPMICHTLPLPEGFQVVKVGANGEVETLEQGELPPQEDSSWQKDPDYQPPAKKTKKTKKSKLRYTEEGKDVDVSVADAEEEQQEGLLSEVNAEKVVGNMKPPKPTKIKKKGVKKTFQCELCSYTCPRRSNLDRHMKSHTDERPHKCHLCGRAFRTVTLLRNHLNTHTGTRPHKCPDCDMAFVTSGELVRHRRYKHTHEKPFKCSMCDYASVEVSKLKRHIRSHTGERPFQCSLCSYASRDTYKLKRHMRTHSGEKPYECYICHARFTQSGTMKMHILQKHTENVAKFHCPHCDTVIARKSDLGVHLRKQHSYIEQGKKCRYCDAVFHERYALIQHQKSHKNEKRFKCDQCDYACRQERHMIMHKRTHTGEKPYACSHCDKTFRQKQLLDMHFKRYHDPNFVPAAFVCSKCGKTFTRRNTMARHADNCAGPDGVEGENGGETKKSKRGRKRKMRSKKEDSSDSEENAEPDLDDNEEEEEPAVEIEPEPEPQPQPPPPPQPVAPAPPPAKKRRGRPPGRTNQPKQNQPTAIIQVEDQNTGAIENIIVEVKKEPDAEPAEGEEEEAQAATTDAPNGDLTPEMILSMMDR
 | 1.9 fold | WAPL (natural protein, mouse (endogenous in v-Abl pro-B cells), UniProt Q65Z40 1-1200, looked up, WAPL, mouse, endogenous, untagged in the WT and CTCF-Nm lines used for the IP; source: endogenous, chromatin fraction of G1 arrested v-Abl pro-B cells (WT and CTCF-Nm)) MTSRFGKTYSRKGGNGSSKFDEVFSNKRTTLSTKWGETTFMAKLGQKRPNFKPDIQEIPKKPKVEEEDTGDPFGFDSDDESLPVSSKNLAQGKGSSYSESSEAAQLEEVTSVFEANSKCSHVVGEDSFASDRCLLVEDTLIGKEKSISRIPEDNANKSSCTKLLTSDKVENFSEEHEKNSHHFHKNAEDSTKKPNAETAVASEYKADETKETNDTWNSQSGKRTESPSESCPVKGSVRTGLYEWDNDFEDIRSEDCILSLDNESLLEMKDEDLKNRIGGLENLNETFEEDIIQSVLRPSNCRTYCRANKARSSQGASNFDKLMDGTSQSLAKANSESSKDGLNQAKKGSASCGTSFRGTVGRTRDYTVLHPSCLSVCNVTIQDTMERSMDEFTASTPADLGEAGRLRKKADIATSKTTTRFRPSNTKSKKDVKLEFFGFEDHDETGGDEGGSGSSNYKIKYFGFDDLSESEDDDDDDCQVERKKDKKRTKTAPSPSQQPPPESSDNSQDSQSSTNNAENLDFTEDLPGVPESVKKPISKQGDKSKENTRKIFSGPKRSPTKAVYNARHWNHPDSEELPGPPIAKPQRVTVRLSSKEPNQKDDGVFKAPAPPLKVIKTVTIPTQPYQEIVTALKCRKEDKELYTVVQHVKHFNDVVEFGENQEFTDDIEYLLSGLKSTQPLNTRCLSVISLATKCAMPSFRMHLRAHGMVAMVFKTLDDSQHHQNLSLCTAALMYILSRDRLNMDLDRASLDLMIRLLELEQDASSAKLLNEKDMNKIKEKIRRLCETVHNKHLDLENITTGHLAMETLLSLTSKRAGDWFKEELRLLGGLDHIVDKVKECVDHLSRDDEDEEKLVASLWGAERCLRVLESVTVHNPENQSYLIAYKDSQLIISSAKALQHCEDLIQQYNRAENSICVADSNPLPYQNVTNHVGKAVEDCMRAIIGVLLNLTNDNEWGSTKTGEQEGLIGTAMNCVLQVPKYLPQEQRFDIRVLGLGLLINLVEYSARNRHCLVNMQTSCSFDSSFSSGEGDHSLRLAGQVHAVQALVQLFLERERAAQLAESKTDELIKDAPTTQHDKSGEWQETSGEIQWVSTEKTDGAEEKQKKEEEDEELDLNKALQHAGKHMEDCIVASYTALLLGCLCQESPINVTTVREYLPEGDFSIMTEMLKKFLSFMNLTCAVGTTGQKSISRVIEYLEHC
